Values belong to the binder of their own block, whether it stands above or below them.
How the values were obtained:
[1] = target: hIL-12Rβ1_(D3-D5) (domains 3 to 5 of human IL-12 receptor β1) (human, UniProt P42701); assay: crystal structure
[2] = target: T1, biotinylated mIL-12Rβ2_(D1-D6)-Casp3-AviTag-His6 (mouse, UniProt P97378 24-637, biotin on the AviTag (in vitro biotinylation with BirA)); assay: BLI
T1 sequence (looked up): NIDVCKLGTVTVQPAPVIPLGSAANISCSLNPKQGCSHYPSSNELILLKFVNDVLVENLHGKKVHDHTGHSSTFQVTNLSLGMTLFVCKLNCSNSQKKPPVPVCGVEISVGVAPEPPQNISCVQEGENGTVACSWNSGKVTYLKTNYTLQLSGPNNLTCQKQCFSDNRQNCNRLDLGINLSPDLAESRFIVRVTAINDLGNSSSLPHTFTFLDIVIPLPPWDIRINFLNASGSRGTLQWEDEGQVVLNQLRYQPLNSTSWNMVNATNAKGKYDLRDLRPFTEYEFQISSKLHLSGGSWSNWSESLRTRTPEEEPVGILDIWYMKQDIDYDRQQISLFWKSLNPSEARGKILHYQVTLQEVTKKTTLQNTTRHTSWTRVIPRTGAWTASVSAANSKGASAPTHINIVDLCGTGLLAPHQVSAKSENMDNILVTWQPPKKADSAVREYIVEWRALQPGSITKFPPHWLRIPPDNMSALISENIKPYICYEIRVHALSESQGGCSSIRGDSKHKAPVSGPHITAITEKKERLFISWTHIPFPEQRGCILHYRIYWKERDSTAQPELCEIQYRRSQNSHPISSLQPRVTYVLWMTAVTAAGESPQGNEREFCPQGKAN

binding result [1]: binds
B1: Fab4 (wild-type; antigen-binding portion of an antagonistic anti-IL-12Rβ1 antibody) (Fab, V domains shown)
VH: QVQLVESGGGVVQPGRSLRLSCAASGFTFTSYGMSWVRQAPGKGLEWVAGISYDASDTEYADSVKGRFTISRDNSKNTLYLQMNSLRAEDTAVYYCARSPDYIIDYGFDYWGRGTLVTVSS
VL: AIQMTQSPSSLSASVGDRVTITCRASQGISSDLAWYQQKPGKAPKLLIYDASSLQSGVPSRFSGSGSGTDFTLTISSLQPEDFATYYCQQYWWYPFTFGQGTKVEIK

binding result [2]: binds
B2: mIL-12 (mIL-12a-AviTag-His6 and untagged mIL-12b), analyte in BLI (complex, mouse)
chain 1: RVIPVSGPARCLSQSRNLLKTTDDMVKTAREKLKHYSCTAEDIDHEDITRDQTSTLKTCLPLELHKNESCLATRETSSTTRGSCLPPQKTSLMMTLCLGSIYEDLKMYQTEFQAINAALQNHNHQQIILDKGMLVAIDELMQSLNHNGETLRQKPPVGEADPYRVKMKLCILLHAFSTRVVTINRVMGYLSSA
chain 2: MWELEKDVYVVEVDWTPDAPGETVNLTCDTPEEDDITWTSDQRHGVIGSGKTLTITVKEFLDAGQYTCHKGGETLSHSHLLLHKKENGIWSTEILKNFKNKTFLKCEAPNYSGRFTCSWLVQRNMDLKFNIKSSSSSPDSRAVTCGMASLSAEKVTLDQRDYEKYSVSCQEDVTCPTAEETLPIELALEARQQNKYENYSTSFFIRDIIKPDPPKNLQMKPLKNSQVEVSWEYPDSWSTPHSYFSLKFFVRIQRKKEKMKETEEGCNQKGAFLVEKTSTEVQCKGGNVCVQAQDRYYNSSCSKWACVPCRVRS
